Data: patent US20240174746A1 (Alector, published 2024)
Numbering of substitutions follows the chain as printed.

B1: TM-88 (antibody, V domains shown)
VH: EAQLQQSGPVLVKPGASVKMSCKTSGYTFTDYYINWVKQSHGKSLEWIGVINPYSGATYYTQKFKGKATLTVDKSSSTAYMELNSQTSEDSAVYYCARGGYDYGHWYFDVWGTGTTVTVSS
VL: ETTVTQSPASLSMAIGEKVTIRCITSSDIDDHMNWYRQKPGEPPEFLISEGNALRPGVPSRFSSSGYGTDFIFTIENILSEDVADYYCLQSDNLPLTFGAGTKLELK
notes: Purified from mouse hybridoma
B2: TM-85 (antibody, V domains shown)
VH: QVQLQQPGAELVRAGTSVKLSCKASGYTFIGYWMHWVKQRPGRGLEWIGRIDPYSGDTRYNEKFKNKATLTVDKPSSTAYMQLSSLTSEDSAVYYCARYGLGHAMDYWGQGTSVTVSS
VL: DIAMSQSQKFMSTSVGDRVSVTCKASQNVGTNVAWYQQKPGQSPKALIYSASYRYSGVPDRFTGSGSGTDFTLTISNVQSEDLAEYFCQQYNSYPLTFGAGTKLEMK
notes: Purified from mouse hybridoma
B3: TM-91 (antibody, V domains shown)
VH: DVQLQESGPGLVKPSQSLSLTCSVTGYSITSGYYWDWIRQFPGNKLEWMGYISYDGNNNYNPSLKNRISITRDTSKNQFFLKLNSVTTEDTATYYCARAVYSVGFAYWGQGTLVTVSS
VL: B2 VL with A3V, S5T, G30Y, A46P, A100G, M106I
notes: Purified from mouse hybridoma
B4: TM-87 (antibody, V domains shown)
VH: EVQLQQSGPVLVKPGASVKLSCKASGYTFTDYYMNWVKQSHGKSLEWIGVINPYNGATSYNQKFQDKATLTVDKSSSTAYMGLNSLTSEDSAVYYCANGNYDWYFDVWGTGTTVTVSS
VL: DVQITQSPSYLAASPGETITINCRASRSISKYLAWYQEKPGKTNKLLIYSGSTLQSGIPSRFSGSGSGTDFTLTISSLEPEDFAVYYCQQHNEYPLTFGAGTKLELK
notes: Purified from mouse hybridoma
B5: TM-92 (antibody, V domains shown)
VH: EVQLQQSGPELVKPGASVKIPCKASGYTFTDYTMDWVKQSPGKSLEWIGHINPNDGGTFYNQKFKGKATLTVDKSSSTAYMELRSLTSEDSAVYYCARWVYYYGISYEGGAMDYWGQGTSVTVSS
VL: B4 VL with R27K, V85M, L96W, A100G, L106I
notes: Purified from mouse hybridoma
B6: TM-86 (antibody, V domains shown)
VH: EVQLQQSGPVLVKPGASVKMSCKASGYTFTDYYIHWVKQSHGRSLEWIGVISPYNDNTNYNQKFKGKATLTVDKSSSTAYMELNSLTSEDSAVYYCVRTYYSNYFDYWGQGTTLTVSS
VL: DIVMTQSPSSLSVSAGEKVTMSCKSSQSLLNSGNQKNYLAWHQQRPGQPPKLLIYGASTRESGVPDRFTGSGSGTEFTLTISSVQAEDLAVYYCQNDHSYPLTFGAGTKLELK
notes: Purified from mouse hybridoma
B7: TM-84 (antibody, V domains shown)
VH: QVQLQQSGAELVKPGASVKMSCKASGYTFTTFPIEWMKQNHGKSLEWIGNFHPYNDDTKYNEKFKGKATLTVEKSSSTVYLELSRLTSDDSAVYYCARYFYGGMDYWGQGTSVTVSS
VL: DIQMTQSPASLSVSVGETVTITCRASENIYSSLGWYHQKQGKSPQLLVFAATNLADGVPSRFSGSGSGTQYSLKINSLQSEDFGTYYCQHLWSVPWTFGGGTKLEIK
notes: Purified from mouse hybridoma

Molecular target: T1, cynomolgus (cyno) TMEM106B (cynomolgus, UniProt Q9NUM4 2-274 (human entry))
T1 construct: Full-length cDNA transiently transfected into HEK293 cells
Assay: flow cytometry, HEK293 cells transiently transfected with cyno TMEM106B
Protocol: (§1) For screening of the hybridoma cell culture supernatants, humanTMEM106B-transfected HEK293 cells were aliquoted in 96-well round bottom plates (2×10⁵ cells per well) and incubated with 50 μL of hybridoma cell culture supernatant on ice for 30 minutes. […] Cell sorting was performed on a FACS Canto system (BD Biosciences) or iQue (Intellicyt), with sort gates drawn to exclude dead (i.e., propidium iodide-positive) cells. Median fluorescence intensity (MFI) of anti-mouse-APC MFI on TMEM106B+ HEK293 cells was calculated for each clone, and those displaying a signal of at least 2-fold over background compared to a secondary-antibody only well were taken forward for further analysis and characterization.

fold-change in binding over parental HEK293 cells [fold] | Binder
7.57 | B1
0.18 | B2
2.45 | B3
7.21 | B4
5.7 | B5
5.81 | B6
8.43 | B7

Molecular target: T2, human TMEM106B (human, UniProt Q9NUM4 2-274)
T2 construct: Full-length cDNA transiently transfected into HEK293 cells; also called huTMEM106B
Assay: flow cytometry, HEK293 cells transiently transfected with human TMEM106B
Protocol: as §1

fold-change in binding over parental HEK293 cells [fold] | Binder
7.81 | B1
0.26 | B2
5.22 | B3
12.8 | B4
9.14 | B5
9.73 | B6
17.1 | B7

Molecular target: T3, mouse TMEM106B (mouse, UniProt Q80X71 2-275)
T3 construct: Full-length cDNA transiently transfected into HEK293 cells; also called muTMEM106B; murine TMEM106B
Assay: flow cytometry, HEK293 cells transiently transfected with murine TMEM106B
Protocol: as §1

fold-change in binding over parental HEK293 cells [fold] | Binder
5.84 | B1
0.19 | B2
2.41 | B3
27 | B4
5.15 | B5
5.78 | B6
9.62 | B7
